The results in this text go back to paper PMC8809517, “Cofactor-independent RNA editing by a synthetic S-type PPR protein”.

Experiment in all cases: high-throughput RNA pulldown from lysate on Ni-NTA beads; HRP: 50 mM Tris pH 8, 150 mM NaCl, 1 mM beta-mercaptoethanol, 50 ug/ml BSA, 3 ug/ml yeast RNA, 0.5% heparin; ITC and FP: Tris pH 8, 200 mM KCl, 5% glycerol; MST: 50 mM Tris pH 8, 200 mM NaCl, 1 mM DTT, BSA, heparin, 0.05% Tween 20
Holding throughout (details): tags: N-terminal His-eGFP

Data set [1] deals with T1, GFP-9S library array, motif 4 ND N98W;D124P (synthetic construct, N98W;D124P).
T1 chain: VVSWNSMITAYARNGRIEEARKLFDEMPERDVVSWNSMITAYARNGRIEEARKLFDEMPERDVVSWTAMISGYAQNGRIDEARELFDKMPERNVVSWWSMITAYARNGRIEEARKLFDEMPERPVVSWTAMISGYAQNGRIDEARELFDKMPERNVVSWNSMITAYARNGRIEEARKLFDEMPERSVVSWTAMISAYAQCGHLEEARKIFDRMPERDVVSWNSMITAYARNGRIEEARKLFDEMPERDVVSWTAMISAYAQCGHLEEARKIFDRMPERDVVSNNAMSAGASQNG

In data set [2] the target is T2, GFP-9S library array, motif 4 ND N98L;D124P (synthetic construct, N98L;D124P).
T2 chain: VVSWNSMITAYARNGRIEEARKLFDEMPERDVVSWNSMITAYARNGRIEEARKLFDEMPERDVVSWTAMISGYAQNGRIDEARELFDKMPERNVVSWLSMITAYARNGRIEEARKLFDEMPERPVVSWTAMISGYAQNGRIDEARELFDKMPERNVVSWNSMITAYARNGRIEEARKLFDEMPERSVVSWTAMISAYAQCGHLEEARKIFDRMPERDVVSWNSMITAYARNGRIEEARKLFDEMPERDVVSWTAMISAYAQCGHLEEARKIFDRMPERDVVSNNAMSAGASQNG

Data set [3] concerns the target T3, GFP-9S library array, motif 4 ND N98G;D124I (synthetic construct, N98G;D124I).
T3 chain: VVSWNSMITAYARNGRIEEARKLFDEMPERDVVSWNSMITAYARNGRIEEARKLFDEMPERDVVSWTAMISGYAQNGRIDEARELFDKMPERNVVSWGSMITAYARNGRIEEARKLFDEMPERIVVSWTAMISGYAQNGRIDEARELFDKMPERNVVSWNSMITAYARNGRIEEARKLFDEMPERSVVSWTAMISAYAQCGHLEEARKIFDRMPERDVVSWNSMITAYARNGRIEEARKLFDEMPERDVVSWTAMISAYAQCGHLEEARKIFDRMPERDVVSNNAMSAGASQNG

Data set [4] concerns the target T4, GFP-9S library array, motif 4 ND N98W;D124K (synthetic construct, N98W;D124K).
T4 chain: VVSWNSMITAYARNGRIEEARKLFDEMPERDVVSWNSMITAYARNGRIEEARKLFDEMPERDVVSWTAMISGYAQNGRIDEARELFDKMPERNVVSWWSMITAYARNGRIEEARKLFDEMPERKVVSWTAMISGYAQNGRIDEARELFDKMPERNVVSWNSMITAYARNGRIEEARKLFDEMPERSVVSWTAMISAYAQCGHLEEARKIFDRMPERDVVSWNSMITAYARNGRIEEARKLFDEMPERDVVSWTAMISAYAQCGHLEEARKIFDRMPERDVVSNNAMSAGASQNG

Data set [5] addresses T5, GFP-9S library array, motif 4 ND N98K;D124Y (synthetic construct, N98K;D124Y).
T5 chain: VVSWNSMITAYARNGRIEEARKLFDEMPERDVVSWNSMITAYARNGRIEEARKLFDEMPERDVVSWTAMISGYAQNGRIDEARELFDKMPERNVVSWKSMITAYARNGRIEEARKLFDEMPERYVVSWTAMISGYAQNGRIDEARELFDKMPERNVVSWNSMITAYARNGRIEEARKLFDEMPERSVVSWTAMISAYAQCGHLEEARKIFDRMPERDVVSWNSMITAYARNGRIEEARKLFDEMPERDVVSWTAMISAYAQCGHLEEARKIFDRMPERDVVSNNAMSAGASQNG

Broadly, the Kd is the free concentration of one partner at which half of the binding sites on the other are occupied at equilibrium, for simple one-to-one binding. Low values mean higher affinity, high ones lower affinity.

AUUAGACGUGA (ssRNA) [Cy5-rpoA-G]: the Kd in data set [1] (label: 5' Cy5) turned out to be 215 nM; in data set [2] (label: 5' Cy5), 114 nM; in data set [3] (label: 5' Cy5), 113 nM; in data set [4] (label: 5' Cy5), 48.1 nM; in data set [5] (label: 5' Cy5), 49.3 nM.
As to AUUAAACGUGA (ssRNA) [IR-rpoA-A], the Kd in data set [1] (label: 5' IRDye 800CW) turned out to be 579 nM; in data set [2] (label: 5' IRDye 800CW), 213 nM; in data set [3] (label: 5' IRDye 800CW) it was 315 nM; in data set [4] (label: 5' IRDye 800CW) it was 177 nM; in data set [5] (label: 5' IRDye 800CW) it was 115 nM.
Consider AUUACACGUGA (ssRNA) [Cy5-rpoA], for which the Kd in data set [1] (label: 5' Cy5) came out at 230 nM; in data set [2] (label: 5' Cy5) it was 97.7 nM; in data set [3] (label: 5' Cy5), 105 nM; in data set [4] (label: 5' Cy5), 72.6 nM; in data set [5] (label: 5' Cy5), 62.5 nM.
In the case of AUUAUACGUGA (ssRNA) [IR-rpoA-U], the Kd in data set [1] (label: 5' IRDye 800CW) was determined as 526 nM; in data set [2] (label: 5' IRDye 800CW) it was 145 nM; in data set [3] (label: 5' IRDye 800CW) it was 205 nM; in data set [4] (label: 5' IRDye 800CW), 154 nM; in data set [5] (label: 5' IRDye 800CW), 128 nM.
